Data reported in patent publication US20050074840A1.
pKd: −log10 of the molar value.

Molecular target: human TNF-alpha (hTNF-alpha) (human) (UniProt P01375)
Assay: saturation binding of [125I]TNF-alpha on yeast

Row | Substance | pKd
1 | mutant clone 6 TNFrED-agglutinin fusion (H34P + S57I) displayed on yeast (from UniProt P20840 330-650) | 8.77
2 | mutant clone 11 TNFrED-agglutinin fusion (S87P) displayed on yeast (from UniProt P20840 330-650) | 8.88
3 | wild-type TNFrED-agglutinin fusion displayed on the surface of S. cerevisiae BJ2168 (from UniProt P20840 330-650) | 8.69
